Experiment [1] has as its target T1, Fc-CLEC1 labelled with Alexa Fluor 488 (human, Alexa Fluor 488 label (sites not given)).
T1 construct: also called Fc-CLEC1-A488; Alexa488-Fc-Clec-1
T1 chain: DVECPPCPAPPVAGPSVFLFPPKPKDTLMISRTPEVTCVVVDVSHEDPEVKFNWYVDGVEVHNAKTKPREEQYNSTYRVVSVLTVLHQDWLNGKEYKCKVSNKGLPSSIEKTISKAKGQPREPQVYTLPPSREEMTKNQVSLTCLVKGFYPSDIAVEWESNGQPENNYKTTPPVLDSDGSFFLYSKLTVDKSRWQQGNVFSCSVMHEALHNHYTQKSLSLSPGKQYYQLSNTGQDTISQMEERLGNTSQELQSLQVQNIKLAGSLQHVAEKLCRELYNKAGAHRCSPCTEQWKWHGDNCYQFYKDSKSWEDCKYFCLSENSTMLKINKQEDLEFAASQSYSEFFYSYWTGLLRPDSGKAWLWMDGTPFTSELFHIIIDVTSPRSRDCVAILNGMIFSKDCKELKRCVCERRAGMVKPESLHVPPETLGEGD
Nature of the experiment: FACS competition: blocks Fc-CLEC1-A488 (10 nM) binding to CLEC-1 ligand on UV-treated PBMC; % binding. The procedure: (§1) Competition were also measured on UV pre-treated pro-apoptotic human PBMCs, which can also express the ligand after a treatment under UV radiation for 18 hours. After UV treatment, cells were first washed in cold-PSE and then blocked during 30 min at room temperature with human Fc-block 50-fold diluted in PSE, and then replaced on ice. Purified anti-Clec antibodies at different concentrations were pre-incubated with Alexa488-Fc-Clec-1 in PSE at different concentrations for 15 min at room temperature. Pre-incubated mixes were then incubated on Fc-blocked/SAB (#34005-100, Invitrogen, Illkirch, France) pro-apoptotic PBMCs for 30 min on ice. Binding on cells were then fixed by PFA 2% in cold PBS for 10 min on ice and analyzed on CytoFlex cytofluorometer (Beckman Coulter France, Villepinte).
(§2) Methods. To measure competition on permeabilised Raji (CytoFix/cytoperm kit, BD Biosciences) which expressed CLEC1 ligand, Fc-CLEC1-labelled A488 which bound specifically to permeabilised Raji was used. To measure competition, Fc-CLEC1 labelled A488 at 10 nM or 20 nM was mixed with mouse anti-hCLEC1 at different concentrations for 15 min at RT then added on these cells for 30 min at 4° C. […] To measure competition on PMBC, we used human PBMC pre-treated by UV for 18 h to obtain apoptotic PBMC, which expressed CLEC1 ligand. Fc-CLEC1-labelled A488 bound specifically apoptotic UV-treated PBMC. To measure competition, Fc-CLEC1 labelled A488 at 10 nM was mixed with mouse anti-hCLEC1 at different concentrations for 15 min at RT then added on these cells for 30 min at 4° C.

Experiment [2] has as its target T2, recombinant human CLEC-1 protein with His Tag (#1704-CL R&D Systems) (human, UniProt Q8NC01 74-280).
T2 construct: Bought protein; also called His-CLEC1; His Clec-1; not shown: His tag
T2 sequence: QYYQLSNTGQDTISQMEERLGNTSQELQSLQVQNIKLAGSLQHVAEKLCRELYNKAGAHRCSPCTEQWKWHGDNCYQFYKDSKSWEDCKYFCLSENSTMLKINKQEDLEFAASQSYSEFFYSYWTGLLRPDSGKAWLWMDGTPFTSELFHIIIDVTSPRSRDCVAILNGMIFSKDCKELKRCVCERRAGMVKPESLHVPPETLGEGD
The experiment in a line: ELISA on immobilised His-CLEC1 (from FIGURE 12). The protocol: Method: The binding activity of the anti-hCLEC1 antibodies was assessed by ELISA (Enzyme-linked immunosorbent assay). […] A second ELISA assays was performed, like above, with immobilization of CLEC1-Fc (OSE Immunotherapeutics) at 2 μg/ml. A third ELISA assays was performed to see the cross-reactivity with mouse CLEC1. Like above, ELISA was made with immobilization of mouse Fc-CLEC1 (OSE Immunotherapeutics) at 2 μg/ml in carbonate buffer instead of His-Clec. Purified antibodies were added at different concentrations to measure binding. […] Control antibody is a commercial anti-CLEC-1A antibody.

Experiment [3] deals with T2, recombinant human CLEC-1 protein with …. Nature of the experiment: Blitz biolayer interferometry, His-CLEC1 on Ni-NTA biosensor, antibody at 20 ug/mL. For orientation: BLI is a label-free optical method that tracks binding on a fibre tip over time.
In experiment [4] the target is T1, Fc-CLEC1 labelled with Alexa Fluor 488. Nature of the experiment: FACS competition: blocks Fc-CLEC1-A488 (10 nM) binding to CLEC-1 ligand on UV-treated PBMC. The protocol: as §1, §2
Experiment [5] addresses T3, human CLEC-1A expressed on the cell membrane (human, UniProt Q8NC01 1-280).
T3 construct: Endogenous on human U266 myeloma cells, on monocyte-derived TGFb-DC and macrophages; on CHO cells after transduction with a Clec-1 expressing lentivirus; also called U266 CLEC1; CLEC-1A on U266 cells
T3 sequence: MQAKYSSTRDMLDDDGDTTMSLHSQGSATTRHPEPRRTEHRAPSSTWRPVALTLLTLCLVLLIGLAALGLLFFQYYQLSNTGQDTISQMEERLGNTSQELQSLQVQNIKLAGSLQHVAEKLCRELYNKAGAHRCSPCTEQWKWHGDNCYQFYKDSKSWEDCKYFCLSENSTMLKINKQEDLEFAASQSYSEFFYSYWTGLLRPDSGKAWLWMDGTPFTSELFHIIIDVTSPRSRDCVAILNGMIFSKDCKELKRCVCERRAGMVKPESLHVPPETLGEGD
The experiment in a line: flow cytometry on U266 cells, PE anti-human IgG; % positive cells. The protocol: (§3) Method: To measure binding of anti-CLEC1 on human U266 cell lines (pre-blocked with Fcblock to blocking FcR), antibodies at different concentrations were incubated for 30 min at 4° C., and washed before stained 30 min at 4° C. with PE-labelled anti-human IgG (Biolegend; reference 409304). Samples were analyzed on Cytoflex cytofluorometer (Beckman Coulter). The MFI of anti-CLEC1 was compared between all anti-CLEC1 antibodies and percentage of stained cells was analysed in all conditions.
In general terms: In flow cytometry, cells or beads pass a laser one at a time.

Experiment [6] has as its target T3, human CLEC-1A expressed on the cell …. The experiment in a line: flow cytometry on U266 cells, PE anti-human IgG; median fluorescence. The procedure: as §3
Experiment [7] has the same target. Nature of the experiment: flow cytometry on U266 cells. The protocol: as §3

B1: chimeric anti-CLEC-1A antibody 14H9 (antibody, human IgG4 S228P, kappa, V domains shown)
VH: QVQLKESGPGLVAPSQSLSITCTISGFSLTTYGIHWVRQPPGKGLEWLVVIWSDGSTIYNSALKSRLSISKDNSKSQVFLKMNSLQTDDTAIYYCARHGGYYNYFDYWGQGTTLTVSS
VL: DIQMNQSPSSLSASLGDTITITCHASQNINVWLSWYQQKPGNIPKLLIYKASNLHTGVPSRFSGSGSGTTFTLTIDSLQPEDIATYYCQQGQSYWTFGGGTKLEIKR
notes: also called 14H9chim; 14H9-VHwt-FcG4m / 14H9-VLwt-CLhk
Broadly, the EC50 is the concentration at which the effect is half-maximal. As a reminder, the Kd is the free concentration of one partner at which half of the binding sites on the other are occupied at equilibrium, for simple one-to-one binding. Broadly, the koff is a measure of how fast the partners let go of each other. By kon is commonly meant a measure of how fast the partners come together. Broadly, the IC50 is the point on the concentration scale where inhibition reaches its midpoint. For orientation: EC50 (read off the curve) means the concentration giving half of the maximal effect. Read a high EC50 (read off the curve) as a need for much substance. For the molecule B1, the “IC50 (read off the curve)” value in experiment [1] was ~0.7 µg/mL. For the same molecule, the EC50 was 0.148 µg/mL in experiment [2] and 0.113 µg/mL in experiment [7]. Besides, in experiment [3], the Kd is 15.9 nM. Moreover, the koff in experiment [3] worked out at 0.00124 s⁻¹. Besides, the kon in experiment [3] stood at 78000 M⁻¹ s⁻¹. In experiment [4], this molecule gave an IC50 of 0.873 µg/mL. For the same molecule, the “EC50 (read off the curve)” value in experiment [5] and in experiment [6] was ~0.06 µg/mL throughout.

Values taken from patent publication US20230331852A1 (OSE IMMUNOTHERAPEUTICS, published 2023).
